Measurements published in patent US20220267441A1 (VOR BIOPHARMA, published 2022).
Positions count from the first letter of the chain named. Like-named read-outs stand apart in the source and are kept apart here.

Key:
[1] = biological target: T1, cynomolgus CD45 on live cells (primary cynomolgus PBMCs) (cynomolgus monkey); experiment: flow cytometry on cynomolgus PBMCs, overnight 37 C, AF488 anti-human IgG
T1 construct: Endogenous CD45 on PBMCs; also called cyno CD45; Cyno PBMC
T1 chain: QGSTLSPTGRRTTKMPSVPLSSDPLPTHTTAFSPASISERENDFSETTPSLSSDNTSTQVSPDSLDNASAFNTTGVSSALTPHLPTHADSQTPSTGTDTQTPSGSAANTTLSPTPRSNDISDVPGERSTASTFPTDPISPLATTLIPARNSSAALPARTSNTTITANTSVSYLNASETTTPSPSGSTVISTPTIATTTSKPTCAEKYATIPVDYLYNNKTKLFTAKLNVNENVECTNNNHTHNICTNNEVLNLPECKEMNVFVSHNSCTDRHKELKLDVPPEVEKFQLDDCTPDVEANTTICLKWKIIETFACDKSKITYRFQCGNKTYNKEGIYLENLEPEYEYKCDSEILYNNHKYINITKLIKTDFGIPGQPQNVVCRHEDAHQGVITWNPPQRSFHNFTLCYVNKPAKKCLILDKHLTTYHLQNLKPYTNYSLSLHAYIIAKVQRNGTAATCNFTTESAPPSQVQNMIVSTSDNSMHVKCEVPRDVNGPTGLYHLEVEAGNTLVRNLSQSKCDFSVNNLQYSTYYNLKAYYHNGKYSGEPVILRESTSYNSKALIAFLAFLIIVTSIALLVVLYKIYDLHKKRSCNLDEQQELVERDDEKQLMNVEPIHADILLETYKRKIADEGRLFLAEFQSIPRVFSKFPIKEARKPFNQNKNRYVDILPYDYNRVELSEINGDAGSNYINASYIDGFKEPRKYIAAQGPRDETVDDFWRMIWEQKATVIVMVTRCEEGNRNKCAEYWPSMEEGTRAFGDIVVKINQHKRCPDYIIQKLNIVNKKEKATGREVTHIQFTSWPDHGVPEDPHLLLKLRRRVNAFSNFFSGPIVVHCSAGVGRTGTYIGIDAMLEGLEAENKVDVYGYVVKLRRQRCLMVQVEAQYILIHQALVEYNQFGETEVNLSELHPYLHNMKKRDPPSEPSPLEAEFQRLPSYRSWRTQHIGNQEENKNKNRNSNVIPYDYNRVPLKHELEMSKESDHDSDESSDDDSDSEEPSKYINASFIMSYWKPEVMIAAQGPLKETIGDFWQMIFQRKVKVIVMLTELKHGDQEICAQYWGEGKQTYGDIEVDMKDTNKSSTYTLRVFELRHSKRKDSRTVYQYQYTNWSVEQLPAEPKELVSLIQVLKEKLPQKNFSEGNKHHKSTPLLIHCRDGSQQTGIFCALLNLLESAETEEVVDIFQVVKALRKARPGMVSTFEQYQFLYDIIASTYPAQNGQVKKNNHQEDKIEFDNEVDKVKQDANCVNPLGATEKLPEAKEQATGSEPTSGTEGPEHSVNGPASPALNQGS

[2] = biological target: T2, human CD45 on live cells (REH-1 cells, primary human PBMCs) (human, UniProt P08575 26-1306); experiment: flow cytometry on human PBMCs, overnight 37 C, AF488 anti-human IgG
T2 construct: Endogenous CD45
T2 sequence: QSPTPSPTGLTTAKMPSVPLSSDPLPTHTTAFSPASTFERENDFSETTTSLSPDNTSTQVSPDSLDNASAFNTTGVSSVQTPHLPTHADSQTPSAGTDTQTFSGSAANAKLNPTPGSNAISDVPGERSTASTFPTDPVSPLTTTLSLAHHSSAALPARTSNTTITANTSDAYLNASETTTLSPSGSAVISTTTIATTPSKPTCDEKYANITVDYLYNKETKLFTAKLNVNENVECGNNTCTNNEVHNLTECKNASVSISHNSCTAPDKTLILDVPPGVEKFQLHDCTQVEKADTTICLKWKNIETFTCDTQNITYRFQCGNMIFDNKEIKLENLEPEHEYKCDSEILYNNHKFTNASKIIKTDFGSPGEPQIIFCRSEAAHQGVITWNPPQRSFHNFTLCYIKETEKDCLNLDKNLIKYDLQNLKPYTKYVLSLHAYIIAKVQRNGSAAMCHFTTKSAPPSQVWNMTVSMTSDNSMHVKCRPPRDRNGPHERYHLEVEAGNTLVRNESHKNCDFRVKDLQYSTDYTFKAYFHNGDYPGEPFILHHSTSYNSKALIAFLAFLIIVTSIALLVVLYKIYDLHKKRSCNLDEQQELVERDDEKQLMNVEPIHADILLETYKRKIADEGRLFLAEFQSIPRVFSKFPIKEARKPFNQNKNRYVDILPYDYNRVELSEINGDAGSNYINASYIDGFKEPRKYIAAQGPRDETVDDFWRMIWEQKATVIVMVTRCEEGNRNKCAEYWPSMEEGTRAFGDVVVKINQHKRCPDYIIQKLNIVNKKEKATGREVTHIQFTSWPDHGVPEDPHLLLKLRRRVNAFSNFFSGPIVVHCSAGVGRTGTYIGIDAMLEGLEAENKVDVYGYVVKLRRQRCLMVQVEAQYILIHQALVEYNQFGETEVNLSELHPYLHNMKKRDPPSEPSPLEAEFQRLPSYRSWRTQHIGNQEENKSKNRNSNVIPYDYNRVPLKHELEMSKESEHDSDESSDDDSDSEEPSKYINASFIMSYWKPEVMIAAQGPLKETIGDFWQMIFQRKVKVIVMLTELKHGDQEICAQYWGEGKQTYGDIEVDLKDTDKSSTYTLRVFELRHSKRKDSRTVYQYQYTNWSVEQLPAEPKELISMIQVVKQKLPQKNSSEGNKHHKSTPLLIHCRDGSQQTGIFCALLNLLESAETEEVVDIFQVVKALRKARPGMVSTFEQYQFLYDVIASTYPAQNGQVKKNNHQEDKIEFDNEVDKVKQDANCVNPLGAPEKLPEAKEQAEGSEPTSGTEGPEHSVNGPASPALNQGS

[3] = biological target: T3, purified human CD45 ectodomain (human CD45RABC antigen) (human, UniProt P08575 26-577); experiment: BLI (Octet Red96), antibody on anti-human Fc sensor, 100 nM human CD45 ectodomain, 1:1 fit
T3 construct: also called hCD45
T3 sequence: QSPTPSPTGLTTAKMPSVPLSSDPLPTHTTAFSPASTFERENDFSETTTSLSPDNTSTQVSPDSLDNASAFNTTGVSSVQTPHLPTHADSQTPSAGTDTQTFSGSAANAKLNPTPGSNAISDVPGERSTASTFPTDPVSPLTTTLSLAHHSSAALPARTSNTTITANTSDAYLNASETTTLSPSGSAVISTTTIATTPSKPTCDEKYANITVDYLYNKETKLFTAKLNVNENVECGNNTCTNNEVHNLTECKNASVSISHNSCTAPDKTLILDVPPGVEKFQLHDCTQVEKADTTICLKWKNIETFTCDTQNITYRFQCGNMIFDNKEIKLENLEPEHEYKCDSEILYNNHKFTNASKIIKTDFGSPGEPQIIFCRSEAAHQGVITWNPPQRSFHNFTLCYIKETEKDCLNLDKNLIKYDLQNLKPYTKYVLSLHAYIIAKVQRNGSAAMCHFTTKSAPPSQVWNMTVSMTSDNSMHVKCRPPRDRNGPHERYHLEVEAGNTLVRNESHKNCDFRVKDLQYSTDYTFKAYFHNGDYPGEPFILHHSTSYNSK

[4] = biological target: T2, human CD45 on live cells (REH-1 cells, …); experiment: flow cytometry on human PBMCs, overnight 37 C, AF488 anti-human IgG; remark: listed apart in the source
[5] = biological target: T1, cynomolgus CD45 on live cells (primary …); experiment: flow cytometry on PBMCs; cyno EC50 against human EC50
[6] = biological target: T1, cynomolgus CD45 on live cells (primary …); experiment: flow cytometry on cynomolgus PBMCs, overnight 37 C, AF488 anti-human IgG
[7] = biological target: T1, cynomolgus CD45 on live cells (primary …); experiment: flow cytometry on PBMCs; cyno EC50 against human EC50
[8] = biological target: T3, purified human CD45 ectodomain (human …); experiment: BLI (Octet Red96), IgG on anti-human Fc sensor, 50 nM CD45 ectodomain, 1:1 fit
[9] = biological target: T1, cynomolgus CD45 on live cells (primary …); experiment: flow cytometry on cynomolgus PBMCs, overnight 37 C, AF488 anti-human IgG
[10] = biological target: T1, cynomolgus CD45 on live cells (primary …); experiment: flow cytometry on PBMCs; cyno EC50 against human EC50
[11] = biological target: T2, human CD45 on live cells (REH-1 cells, …); experiment: flow cytometry on human PBMCs, overnight 37 C, AF488 anti-human IgG; remark: listed apart in the source

B1: Antibody B (AbB) (antibody, IgG1, V domains shown)
VH: EVQLVESGGGLVQPGGSLRLSCAASGFTFTNFWMAWIRQAPGKGLEWVASISSSGGSIYYPDSVKDRFTISRDNSKNTLYLQMNSLRAEDTAVYYCVKFHHYSGGGDAWGQGTLVTVSS
VL: DIQMTQSPSSLSASVGDRVTITCKASQNINKYLDWYQQKPGKAPKLLIHYTNNLHTGIPSRFSGSGSGTDYTLTISSLQPEDFATYYCLQHSSRWTFGGGTKVEIK
notes: also called humanized clone AbB
In the case of B1, the EC50 [1] is reported as 1.42 nM, the EC50 [2] is reported as 0.67 nM and the Kd [3] is reported as 5.46 nM. For the same binder, the koff [3] was 0.000239 s⁻¹, the kon [3] was 43800 M⁻¹ s⁻¹ and the EC50 [4] was 0.76 nM. For the same binder, the “Fold Cyno vs Human (EC50)” value [5] was 1.7 fold, the EC50 [6] was 1.12 nM and the “Fold Cyno v/s Human (EC50)” value [7] was 1.9 fold.

B2: Antibody 4 (Ab4) (antibody, V domains shown)
VH: EVQLVESGGGLVQPGGSLRLSCAASGFTFEAYSMNWVRQAPGKGLEWVSYISLSGATIHYADSVKGRFTISRDNAKNSLYLQMNSLRAEDTAVYYCARGGQYYYTSSDYGEVAFDIWGQGTMVTVSS
VL: DIVMTQSPLSLPVTPGEPASISCRSSQSLVSNGYNYLDWYLQKPGQSPQLLIYFGSSRASGVPDRFSGSGSGTDFTLKISRVEAEDVGVYYCMQRRRTPWSFGGGTKVEIK
Work on B2 yielded a Kd [8] of 0.0139 nM, a koff [8] of 3.28e-06 s⁻¹ and a kon [8] of 236000 M⁻¹ s⁻¹.

B3: Antibody 3 (Ab3) (antibody, V domains shown)
VH: B2 VH with E1Q, Q13K, E30G, A31G, L53I, H59T, T105D
VL: DIVMTQSPLSLPVTPGEPASISCRSSQSLVSNGYNYLDWYLQKPGQSPQLLIYFGSSRASGVPDRFSGSGSGTDFTLKISRVEAEDVGVYYCMQRRRTPPFTFGGGTKVEIK
Binder B3 has a Kd [8] of 0.866 nM, a koff [8] of 0.000225 s⁻¹ and a kon [8] of 260000 M⁻¹ s⁻¹.

B4: Antibody 2 (Ab2) (antibody, V domains shown)
VH: B2 VH with T105D
VL: B2 VL
For B4, the Kd [8] was 0.115 nM, the koff [8] was 2.8e-05 s⁻¹ and the kon [8] was 245000 M⁻¹ s⁻¹.

B5: Antibody 7 (Ab7) (antibody, V domains shown)
VH: B2 VH with E1Q, Q13K, E30G, A31G, L53I, H59T, T105D
VL: B3 VL with N32S
notes: Human IgG: Ab3 with the Asn to Ser substitution in CDR-L1
B5 gave a Kd [8] of 2.33 nM, a koff [8] of 0.000615 s⁻¹ and a kon [8] of 264000 M⁻¹ s⁻¹.

B6: Antibody 5 (Ab5) (antibody, V domains shown)
VH: B2 VH
VL: B2 VL with N32S
notes: Human IgG: Ab4 with the Asn to Ser substitution in CDR-L1
Binder B6 has a Kd [8] of 0.144 nM, a koff [8] of 3.36e-05 s⁻¹ and a kon [8] of 233000 M⁻¹ s⁻¹.

B7: Antibody 6 (Ab6) (antibody, V domains shown)
VH: B2 VH with M122L
VL: B2 VL with M4L, N32S
Binder B7 has a Kd [8] of 0.0716 nM, a koff [8] of 1.73e-05 s⁻¹ and a kon [8] of 242000 M⁻¹ s⁻¹.

B8: Antibody A (AbA) (antibody, V domains shown)
VH: EVQLLESGGGLVQPGGSLRLSCAASGFTFNNYWMTWVRQAPGKGLEWVSSISSSGGSIYYPDRVKGRFTISRDNSKNTLYLQMNSLRAEDTAVYYCARDERWAGAMDAWGQGTTVTVSS
VL: DIQMTQSPSSLSASVGDRVTITCKASQNINKNLDWYQQKPGKAPKLLIYETNNLQTGVPSRFSGSGSGTDFTLTISSLQPEDFATYYCYQHNSRFTFGQGTKLEIK
notes: also called humanized clone AbA
B8 showed an EC50 [1] of 1.37 nM, an EC50 [2] of 0.58 nM and a Kd [3] of 3.6 nM. It also gave a koff [3] of 0.000181 s⁻¹, a kon [3] of 50300 M⁻¹ s⁻¹ and an EC50 [4] of 0.78 nM. The “Fold Cyno vs Human (EC50)” value [5] was 2.2 fold, the EC50 [6] was 1.25 nM and the “Fold Cyno v/s Human (EC50)” value [7] was 1.8 fold.

B9: AbA_D265C_LALA_H435A (antibody, human IgG1, kappa, L234A L235A, V domains shown)
VH: B8 VH
VL: DIQMTQSPSSLSASVGDRVTITCKASQNINKNLDWYQQKPGKAPKLLIYETNNLQTGVPSRFSGSGSGTDFTLTISSLQPEDFATYYCYQHNSRFTFGQGTKLEIKR
notes: also called Fc variant of AbA
B9 was tested, and the EC50 [9] was 3.4 nM, the “Cyno/Human Ratio (EC50)” value [10] was 1.49 ratio and the EC50 [11] was 2.3 nM.
